{"source": "paper PMC11695723", "about": "“MCM2-7 ring closure involves the Mcm5 C-terminus and triggers Mcm4 ATP hydrolysis” (Nature Communications, 2025)", "binders": {"B1": {"name": "Cdc6 (natural protein)", "chain": "MSAIPITPTKRIRRNLFDDAPATPPRPLKRKKLQFTDVTPESSPEKLQFGSQSIFLRTKALLQKSSELVNLNSSDGALPARTAEYEQVMNFLAKAISEHRSDSLYITGPPGTGKTAQLDMIIRQKFQSLPLSLSTPRSKDVLRHTNPNLQNLSWFELPDGRLESVAVTSINCISLGEPSSIFQKIFDSFQDLNGPTLQIKNMQHLQKFLEPYHKKTTFVVVLDEMDRLLHANTSETQSVRTILELFLLAKLPTVSFVLIGMANSLDMKDRFLSRLNLDRGLLPQTIVFQPYTAEQMYEIVIQKMSSLPTIIFQPMAIKFAAKKCAGNTGDLRKLFDVLRGSIEIYELEKRFLLSPTRGSLNSAQVPLTPTTSPVKKSYPEPQGKIGLNYIAKVFSKFVNNNSTRTRIAKLNIQQKLILCTIIQSLKLNSDATIDESFDHYIKAITKTDTLAPLQRNEFLEICTILETCGLVSIKKTKCKGKTKRFVDKIDVDLDMREFYDEMTKISILKPFLH", "notes": "Cdc6; also called WT Cdc6; source: E. coli BL21 codon-plus, purified (glutathione-agarose, PreScission Protease, hydroxyapatite)"}, "B2": {"name": "Orc3 (natural protein)", "chain": "MSDLNQSKKMNVSEFADAQRSHYTVYPSLPQSNKNDKHIPFVKLLSGKESEVNVEKRWELYHQLHSHFHDQVDHIIDNIEADLKAEISDLLYSETTQKRRCFNTIFLLGSDSTTKIELKDESSRYNVLIELTPKESPNVRMMLRRSMYKLYSAADAEEHPTIKYEDINDEDGDFTEQNNDVSYDLSLVENFKRLFGKDLAMVFNFKDVDSINFNTLDNFIILLKSAFKYDHVKISLIFNINTNLSNIEKNLRQSTIRLLKRNYHKLDVSSNKGFKYGNQIFQSFLDTVDGKLNLSDRFVEFILSKMANNTNHNLQLLTKMLDYSLMSYFFQNAFSVFIDPVNVDFLNDDYLKILSRCPTFMFFVEGLIKQHAPADEILSLLTNKNRGLEEFFVEFLVRENPINGHAKFVARFLEEELNITNFNLIELYHNLLIGKLDSYLDRWSACKEYKDRLHFEPIDTIFQELFTLDNRSGLLTQSIFPSYKSNIEDNLLSWEQVLPSLDKENYDTLSGDLDKIMAPVLGQLFKLYREANMTINIYDFYIAFRETLPKEEILNFIRKDPSNTKLLELAETPDAFDKVALILFMQAIFAFENMGLIKFQSTKSYDLVEKCVWRGI", "notes": "Orc3; subunit of ORC; source: Hi-5 cells, baculovirus, purified as a subunit of ORC"}, "B3": {"name": "Mcm7 (natural protein, S. cerevisiae)", "chain": "MSAALPSIQLPVDYNNLFNEITDFLVTFKQDTLSSDATRNENEDENLDAENIEQHLLEKGPKYMAMLQKVANRELNSVIIDLDDILQYQNEKFLQGTQADDLVSAIQQNANHFTELFCRAIDNNMPLPTKEIDYKDDVLDVILNQRRLRNERMLSDRTNEIRSENLMDTTMDPPSSMNDALREVVEDETELFPPNLTRRYFLYFKPLSQNCARRYRKKAISSKPLSVRQIKGDFLGQLITVRGIITRVSDVKPAVEVIAYTCDQCGYEVFQEVNSRTFTPLSECTSEECSQNQTKGQLFMSTRASKFSAFQECKIQELSQQVPVGHIPRSLNIHVNGTLVRSLSPGDIVDVTGIFLPAPYTGFKALKAGLLTETYLEAQFVRQHKKKFASFSLTSDVEERVMELITSGDVYNRLAKSIAPEIYGNLDVKKALLLLLVGGVDKRVGDGMKIRGDINVCLMGDPGVAKSQLLKAICKISPRGVYTTGKGSSGVGLTAAVMKDPVTDEMILEGGALVLADNGICCIDEFDKMDESDRTAIHEVMEQQTISISKAGINTTLNARTSILAAANPLYGRYNPRLSPLDNINLPAALLSRFDILFLMLDIPSRDDDEKLAEHVTYVHMHNKQPDLDFTPVEPSKMREYIAYAKTKRPVMSEAVNDYVVQAYIRLRQDSKREMDSKFSFGQATPRTLLGIIRLSQALAKLRLADMVDIDDVEEALRLVRVSKESLYQETNKSKEDESPTTKIFTIIKKMLQETGKNTLSYENIVKTVRLRGFTMLQLSNCIQEYSYLNVWHLINEGNTLKFVDDGTMDTDQEDSLVSTPKLAPQTTASANVSAQDSDIDLQDA", "notes": "Mcm7, S. cerevisiae; subunit of the MCM2-7 hexamer; source: S. cerevisiae, galactose-induced, purified as a subunit of MCM2-7 (anti-HA beads, HA peptide, gel filtration)"}, "B4": {"name": "Mcm5 lacking its C-terminus (subunit of MCM2-7-ΔC5) (domain or fragment, S. cerevisiae, UniProt P29496 1-692, looked up)", "chain": "MSFDRPEIYSAPVLQGESPNDDDNTEIIKSFKNFILEFRLDSQFIYRDQLRNNILVKNYSLTVNMEHLIGYNEDIYKKLSDEPSDIIPLFETAITQVAKRISILSRAQSANNNDKDPENTSMDTDSLLLNSLPTFQLILNSNANQIPLRDLDSEHVSKIVRLSGIIISTSVLSSRATYLSIMCRNCRHTTSITINNFNSITGNTVSLPRSCLSTIESESSMANESNIGDESTKKNCGPDPYIIIHESSKFIDQQFLKLQEIPELVPVGEMPRNLTMTCDRYLTNKVIPGTRVTIVGIYSIYNSKNGAGSGRSGGGNGGSGVAIRTPYIKILGIQSDVETSSIWNSVTMFTEEEEEEFLQLSRNPKLYEILTNSIAPSIFGNEDIKKAIVCLLMGGSKKILPDGMRLRGDINVLLLGDPGTAKSQLLKFVEKVSPIAVYTSGKGSSAAGLTASVQRDPMTREFYLEGGAMVLADGGVVCIDEFDKMRDEDRVAIHEAMEQQTISIAKAGITTVLNSRTSVLAAANPIYGRYDDLKSPGDNIDFQTTILSRFDMIFIVKDDHNEERDISIANHVINIHTGNANAMQNQQEENGSEISIEKMKRYITYCRLKCAPRLSPQAAEKLSSNFVTIRKQLLINELESTERSSIPITIRQLEAIIRITESLAKLELSPIAQERHVDEAIRLFQASTMDAA", "notes": "Mcm5, S. cerevisiae, deletion of residues 693-775 (C5); also called mcm5ΔC5; mcm5 (Δ693-775); source: S. cerevisiae, galactose-induced, purified as a subunit of MCM2-7-ΔC5 (anti-HA beads, HA peptide, gel filtration)"}}, "conditions_in_all_cases": "both partners purified", "key": {"[1]": {"molecular_target": "T1, Origin Recognition Complex (ORC) (UniProt P54784 1-914; P32833 1-620; P54790 1-616; P54791 1-529; P50874 1-479; P38826 …)", "T1 construct": "Orc1; Orc2; Orc3; Orc4; Orc5; Orc6; in all assays ORC stood with ARS1 DNA; source: Hi-5 cells, baculovirus (Orc1,6; Orc2,5; Orc3,4), purified (ammonium sulphate, SP Sepharose, Mono Q, Superdex 200); copies: + + + + +", "test": "cryo-EM structure; closed-gate OCCM (ORC-Cdc6-Cdt1-MCM2-7) on ARS1 DNA with ATPγS; focused 3D classification of the particles of ref. 13; about 10% of the particles; 6.1 Å"}, "[2]": {"molecular_target": "T2, MCM2-7 (wild type) (S. cerevisiae, UniProt P29469 1-868; P24279 1-971; P30665 1-933; P29496 1-775; P53091 1-1017; P38132 …)", "T2 construct": "Mcm2, S. cerevisiae; Mcm3, S. cerevisiae; Mcm4, S. cerevisiae; Mcm5, S. cerevisiae; Mcm6, S. cerevisiae; Mcm7, S. cerevisiae; hetero-hexamer; plasmids and strains are in Supplementary Data 1; also called WT MCM2-7; copies: + + + + +", "T2 sequence (P29469 whole entry, chain 1 of 3)": "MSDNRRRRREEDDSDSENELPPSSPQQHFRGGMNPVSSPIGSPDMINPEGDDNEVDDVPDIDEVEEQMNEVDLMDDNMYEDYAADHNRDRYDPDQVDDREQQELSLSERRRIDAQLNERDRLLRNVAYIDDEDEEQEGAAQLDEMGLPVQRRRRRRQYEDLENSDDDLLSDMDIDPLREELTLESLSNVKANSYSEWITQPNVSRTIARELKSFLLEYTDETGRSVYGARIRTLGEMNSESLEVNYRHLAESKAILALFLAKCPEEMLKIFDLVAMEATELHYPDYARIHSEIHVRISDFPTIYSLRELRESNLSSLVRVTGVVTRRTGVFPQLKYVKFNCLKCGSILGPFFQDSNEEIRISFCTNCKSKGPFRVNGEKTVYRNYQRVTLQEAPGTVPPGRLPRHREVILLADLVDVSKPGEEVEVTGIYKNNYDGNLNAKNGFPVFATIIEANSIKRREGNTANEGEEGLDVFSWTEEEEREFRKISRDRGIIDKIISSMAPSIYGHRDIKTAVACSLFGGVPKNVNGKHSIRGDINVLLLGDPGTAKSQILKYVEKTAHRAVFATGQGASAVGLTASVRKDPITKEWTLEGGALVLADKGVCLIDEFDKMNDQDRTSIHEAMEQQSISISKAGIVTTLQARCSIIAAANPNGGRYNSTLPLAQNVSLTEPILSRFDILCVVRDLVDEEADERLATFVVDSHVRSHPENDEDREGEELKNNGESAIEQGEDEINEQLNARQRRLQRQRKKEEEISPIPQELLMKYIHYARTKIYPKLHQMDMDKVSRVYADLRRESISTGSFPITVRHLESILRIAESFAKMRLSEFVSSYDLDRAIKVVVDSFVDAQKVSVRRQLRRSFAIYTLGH", "T2 sequence (P24279 whole entry, chain 2 of 3)": "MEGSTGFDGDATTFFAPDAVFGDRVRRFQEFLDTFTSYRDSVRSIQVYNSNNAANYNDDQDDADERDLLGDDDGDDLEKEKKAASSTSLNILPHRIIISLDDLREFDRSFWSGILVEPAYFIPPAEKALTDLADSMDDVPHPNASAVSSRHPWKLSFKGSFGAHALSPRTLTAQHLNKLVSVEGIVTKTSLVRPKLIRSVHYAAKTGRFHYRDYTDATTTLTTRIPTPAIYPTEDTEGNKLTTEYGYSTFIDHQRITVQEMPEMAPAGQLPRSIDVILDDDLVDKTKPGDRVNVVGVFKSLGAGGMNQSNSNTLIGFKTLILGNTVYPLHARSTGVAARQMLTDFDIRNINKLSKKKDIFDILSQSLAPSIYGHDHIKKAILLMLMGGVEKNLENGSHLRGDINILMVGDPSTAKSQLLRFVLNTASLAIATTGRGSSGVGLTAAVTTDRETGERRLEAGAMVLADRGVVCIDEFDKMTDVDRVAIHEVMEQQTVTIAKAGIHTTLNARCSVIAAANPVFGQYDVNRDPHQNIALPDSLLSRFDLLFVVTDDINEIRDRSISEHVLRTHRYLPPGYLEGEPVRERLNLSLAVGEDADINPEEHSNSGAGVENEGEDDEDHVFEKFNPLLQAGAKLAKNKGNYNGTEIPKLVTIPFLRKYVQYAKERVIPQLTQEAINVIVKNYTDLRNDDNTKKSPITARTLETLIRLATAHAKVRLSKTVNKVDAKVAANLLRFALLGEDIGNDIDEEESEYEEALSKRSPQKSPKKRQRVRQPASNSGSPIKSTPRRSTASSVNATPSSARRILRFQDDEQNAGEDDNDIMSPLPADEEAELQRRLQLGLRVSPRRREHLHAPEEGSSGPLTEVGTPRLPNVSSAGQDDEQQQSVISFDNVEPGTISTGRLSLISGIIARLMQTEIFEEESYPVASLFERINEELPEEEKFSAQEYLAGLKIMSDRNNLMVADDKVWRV", "T2 sequence (P53091 whole entry, chain 5 of 3)": "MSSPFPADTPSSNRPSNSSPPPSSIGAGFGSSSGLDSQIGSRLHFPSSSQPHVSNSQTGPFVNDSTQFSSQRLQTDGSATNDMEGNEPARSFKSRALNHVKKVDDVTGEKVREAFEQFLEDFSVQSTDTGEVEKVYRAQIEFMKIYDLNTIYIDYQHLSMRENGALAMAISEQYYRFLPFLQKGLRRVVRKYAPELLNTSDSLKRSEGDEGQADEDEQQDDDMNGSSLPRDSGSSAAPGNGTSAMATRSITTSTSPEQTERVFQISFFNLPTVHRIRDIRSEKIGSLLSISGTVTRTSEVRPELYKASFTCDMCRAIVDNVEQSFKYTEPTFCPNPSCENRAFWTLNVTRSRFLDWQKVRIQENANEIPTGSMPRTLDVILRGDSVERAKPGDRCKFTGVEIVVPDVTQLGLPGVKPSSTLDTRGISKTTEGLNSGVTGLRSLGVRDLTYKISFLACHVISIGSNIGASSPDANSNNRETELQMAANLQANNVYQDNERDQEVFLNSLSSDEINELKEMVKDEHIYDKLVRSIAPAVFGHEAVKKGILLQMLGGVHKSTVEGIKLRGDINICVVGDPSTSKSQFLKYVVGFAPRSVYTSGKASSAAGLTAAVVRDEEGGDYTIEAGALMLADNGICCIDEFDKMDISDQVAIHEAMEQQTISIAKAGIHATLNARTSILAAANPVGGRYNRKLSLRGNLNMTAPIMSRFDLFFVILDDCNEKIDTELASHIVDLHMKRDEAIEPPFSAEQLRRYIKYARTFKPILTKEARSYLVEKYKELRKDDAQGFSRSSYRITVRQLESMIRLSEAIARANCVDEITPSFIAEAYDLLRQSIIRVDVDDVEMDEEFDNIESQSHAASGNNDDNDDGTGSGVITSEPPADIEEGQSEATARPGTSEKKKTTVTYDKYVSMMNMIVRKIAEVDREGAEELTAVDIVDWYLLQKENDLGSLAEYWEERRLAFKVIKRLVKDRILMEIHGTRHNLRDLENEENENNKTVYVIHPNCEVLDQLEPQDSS", "test": "pull-down; pre-RC pulldown: 150 nM ORC, 300 nM Cdc6, 150 nM Cdt1, 150 nM MCM2-7 and 200 nM 290 bp ARS1 DNA in solution, anti-HA beads (HA-Mcm3), low salt wash, HA peptide elution"}, "[3]": {"molecular_target": "T3, MCM2-7-ΔC5 (S. cerevisiae, UniProt P29469 1-868; P24279 1-971; P30665 1-933; P29496 1-692; P53091 1-1017; P38132 …)", "T3 construct": "Mcm2, S. cerevisiae; Mcm3, S. cerevisiae; Mcm4, S. cerevisiae; Mcm5, S. cerevisiae, deletion of residues 693-775 (C-terminal extension C5: linker and WHD); Mcm6, S. cerevisiae; Mcm7, S. cerevisiae; also called mcm5 (Δ693-775); copies: + + + + +", "T3 sequence (P29469 whole entry, stated change not applied, chain 1 of 3, the tested form may be a part)": "as the sequence (P29469 whole entry, chain 1 of 3) above", "T3 sequence (P24279 whole entry, stated change not applied, chain 2 of 3, the tested form may be a part)": "as the sequence (P24279 whole entry, chain 2 of 3) above", "T3 sequence (P53091 whole entry, stated change not applied, chain 5 of 3, the tested form may be a part)": "as the sequence (P53091 whole entry, chain 5 of 3) above", "test": "pull-down; pre-RC pulldown: 150 nM ORC, 300 nM Cdc6, 150 nM Cdt1, 150 nM MCM2-7 and 200 nM 290 bp ARS1 DNA in solution, anti-HA beads (HA-Mcm3), low salt wash, HA peptide elution"}, "[4]": {"molecular_target": "T4, Mcm5 (S. cerevisiae, UniProt P29496 1-775)", "T4 construct": "Mcm5, S. cerevisiae; subunit of the MCM2-7 hexamer; source: S. cerevisiae, galactose-induced, purified as a subunit of MCM2-7 (anti-HA beads, HA peptide, gel filtration)", "T4 sequence": "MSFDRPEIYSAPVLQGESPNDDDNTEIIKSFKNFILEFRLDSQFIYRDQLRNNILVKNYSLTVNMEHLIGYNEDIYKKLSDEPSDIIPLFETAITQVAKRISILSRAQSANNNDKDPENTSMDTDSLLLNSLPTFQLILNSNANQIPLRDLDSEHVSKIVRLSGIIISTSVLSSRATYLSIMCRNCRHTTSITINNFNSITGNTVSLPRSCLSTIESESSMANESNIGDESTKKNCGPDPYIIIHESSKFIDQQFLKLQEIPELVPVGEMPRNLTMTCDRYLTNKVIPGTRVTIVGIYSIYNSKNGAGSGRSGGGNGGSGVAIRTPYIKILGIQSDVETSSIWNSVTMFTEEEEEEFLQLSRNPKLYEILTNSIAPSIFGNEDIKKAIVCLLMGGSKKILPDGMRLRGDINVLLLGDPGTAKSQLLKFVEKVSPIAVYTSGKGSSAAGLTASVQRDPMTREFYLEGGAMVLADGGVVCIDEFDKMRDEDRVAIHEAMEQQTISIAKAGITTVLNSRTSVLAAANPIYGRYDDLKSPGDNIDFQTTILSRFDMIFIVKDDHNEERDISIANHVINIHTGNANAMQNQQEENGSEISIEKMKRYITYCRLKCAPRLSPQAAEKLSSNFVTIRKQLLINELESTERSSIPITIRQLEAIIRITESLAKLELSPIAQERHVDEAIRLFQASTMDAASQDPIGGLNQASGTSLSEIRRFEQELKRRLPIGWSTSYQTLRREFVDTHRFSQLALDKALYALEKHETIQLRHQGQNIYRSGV", "test": "cryo-EM structure; closed-gate OCCM (ORC-Cdc6-Cdt1-MCM2-7) on ARS1 DNA with ATPγS; focused 3D classification of the particles of ref. 13; about 10% of the particles; 6.1 Å"}, "[5]": {"molecular_target": "T5, Mcm3 (HA-tagged) (S. cerevisiae, UniProt P24279 1-971)", "T5 construct": "Mcm3, S. cerevisiae; subunit of the MCM2-7 hexamer; bait of the anti-HA bead pulldowns; source: S. cerevisiae, galactose-induced, purified as a subunit of MCM2-7 (anti-HA beads, HA peptide, gel filtration)", "T5 sequence (P24279 whole entry)": "as the sequence (P24279 whole entry, chain 2 of 3) above", "test": "pull-down; 150 nM MCM2-7 alone in pre-RC buffer, bound to anti-HA magnetic beads by the HA-tag on Mcm3, low salt wash (pre-RC buffer), HA peptide elution, silver stain"}, "[6]": {"molecular_target": "T6, Mcm4 (S. cerevisiae, UniProt P30665 1-933)", "T6 construct": "Mcm4, S. cerevisiae; subunit of the MCM2-7 hexamer; source: S. cerevisiae, galactose-induced, purified as a subunit of MCM2-7 (anti-HA beads, HA peptide, gel filtration)", "T6 sequence": "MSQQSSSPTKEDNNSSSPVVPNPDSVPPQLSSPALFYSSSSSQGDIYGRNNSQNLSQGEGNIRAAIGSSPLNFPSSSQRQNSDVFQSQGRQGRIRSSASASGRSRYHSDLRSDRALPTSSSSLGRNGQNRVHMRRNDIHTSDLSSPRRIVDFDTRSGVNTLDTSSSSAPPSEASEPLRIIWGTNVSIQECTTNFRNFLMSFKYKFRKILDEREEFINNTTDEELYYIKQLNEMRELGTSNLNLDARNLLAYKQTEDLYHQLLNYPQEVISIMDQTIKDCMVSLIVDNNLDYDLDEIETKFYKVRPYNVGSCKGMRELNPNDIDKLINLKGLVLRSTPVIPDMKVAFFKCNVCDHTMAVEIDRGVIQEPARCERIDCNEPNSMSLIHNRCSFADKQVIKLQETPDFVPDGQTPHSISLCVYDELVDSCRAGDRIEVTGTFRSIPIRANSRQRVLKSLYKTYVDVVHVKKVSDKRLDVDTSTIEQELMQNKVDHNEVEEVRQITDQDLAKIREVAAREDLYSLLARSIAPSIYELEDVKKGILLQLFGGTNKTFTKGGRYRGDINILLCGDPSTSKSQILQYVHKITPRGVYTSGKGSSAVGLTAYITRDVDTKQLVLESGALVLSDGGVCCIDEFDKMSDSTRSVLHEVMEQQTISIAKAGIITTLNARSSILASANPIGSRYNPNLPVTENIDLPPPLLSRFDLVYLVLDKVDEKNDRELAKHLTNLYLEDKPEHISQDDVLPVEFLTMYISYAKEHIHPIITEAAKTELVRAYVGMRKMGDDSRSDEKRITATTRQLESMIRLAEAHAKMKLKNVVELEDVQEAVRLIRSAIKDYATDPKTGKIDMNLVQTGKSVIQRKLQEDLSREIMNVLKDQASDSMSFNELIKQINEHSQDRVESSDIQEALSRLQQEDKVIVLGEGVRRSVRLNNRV", "test": "cryo-EM structure; closed-gate OCCM (ORC-Cdc6-Cdt1-MCM2-7) on ARS1 DNA with ATPγS; focused 3D classification of the particles of ref. 13; about 10% of the particles; 6.1 Å"}}, "data": [{"binder": "B1", "values": [{"measurement": "binding result", "setting": "[1]", "value": "binds"}, {"measurement": "binding result", "setting": "[2]", "value": "binds"}, {"measurement": "binding result", "setting": "[3]", "value": "binds"}]}, {"binder": "B2", "values": [{"measurement": "binding result", "setting": "[4]", "value": "binds"}]}, {"binder": "B3", "values": [{"measurement": "binding result", "setting": "[5]", "value": "binds"}, {"measurement": "binding result", "setting": "[6]", "value": "binds"}]}, {"binder": "B4", "values": [{"measurement": "binding result", "setting": "[5]", "value": "binds"}]}]}
